Results on three molecules are retold here after PMC2856898 (The Journal of Cell Biology, 2010).

T1: His6-Dsn1 (subunit of the recombinant Mis12 complex) (human, UniProt Q9H410 1-356)
T1 sequence (looked up): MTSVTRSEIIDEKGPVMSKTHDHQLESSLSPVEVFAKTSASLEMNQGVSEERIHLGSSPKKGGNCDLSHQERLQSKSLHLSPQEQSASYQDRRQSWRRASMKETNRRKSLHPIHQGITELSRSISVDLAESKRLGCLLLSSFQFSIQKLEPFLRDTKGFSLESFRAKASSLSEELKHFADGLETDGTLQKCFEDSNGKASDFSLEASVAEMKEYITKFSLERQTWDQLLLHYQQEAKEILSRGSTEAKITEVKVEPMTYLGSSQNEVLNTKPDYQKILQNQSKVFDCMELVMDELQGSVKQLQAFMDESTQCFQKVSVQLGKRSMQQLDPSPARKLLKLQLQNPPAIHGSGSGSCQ

B1: Mis12 (subunit of the recombinant Mis12 complex) (natural protein, human, UniProt Q9H081 1-205, looked up)
chain: MSVDPMTYEAQFFGFTPQTCMLRIYIAFQDYLFEVMQAVEQVILKKLDGIPDCDISPVQIRKCTEKFLCFMKGHFDNLFSKMEQLFLQLILRIPSNILLPEDKCKETPYSEEDFQHLQKEIEQLQEKYKTELCTKQALLAELEEQKIVQAKLKQTLTFFDELHNVGRDHGTSDFRESLVSLVQNSRKLQNIRDNVEKESKRLKIS
B2: Nsl1 (subunit of the recombinant Mis12 complex) (natural protein, human, UniProt Q96IY1 1-281, looked up)
chain: MAGSPELVVLDPPWDKELAAGTESQALVSATPREDFRVRCTSKRAVTEMLQLCGRFVQKLGDALPEEIREPALRDAQWTFESAVQENISINGQAWQEASDNCFMDSDIKVLEDQFDEIIVDIATKRKQYPRKILECVIKTIKAKQEILKQYHPVVHPLDLKYDPDPAPHMENLKCRGETVAKEISEAMKSLPALIEQGEGFSQVLRMQPVIHLQRIHQEVFSSCHRKPDAKPENFITQIETTPTETASRKTSDMVLKRKQTKDCPQRKWYPLRPKKINLDT
B3: Nnf1 (subunit of the recombinant Mis12 complex) (natural protein, human, UniProt Q6P1K2 1-205, looked up)
chain: MAEASSANLGSGCEEKRHEGSSSESVPPGTTISRVKLLDTMVDTFLQKLVAAGSYQRFTDCYKCFYQLQPAMTQQIYDKFIAQLQTSIREEISDIKEEGNLEAVLNALDKIVEEGKVRKEPAWRPSGIPEKDLHSVMAPYFLQQRDTLRRHVQKQEAENQQLADAVLAGRRQVEELQLQVQAQQQAWQALHREQRELVAVLREPE

The target in the experiment is T1, His6-Dsn1 (subunit of the recombinant …). Nature of the experiment: co-sedimentation.
For B1, the binding result is on record as “binds”. As to B2, the binding result is on record as “binds”. Take B3: the binding result is “binds”.
